B1: USP39 (parent)
chain: TLSEAYIQIWKRRDNDETNQQGA

Variants of: B1
Assay: protein stability index of a GFP-peptide fusion (GPS, HEK-293T) (PSI 1-6); higher = more stable
Details: c terminus: native
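Note: lentivirally expressed fusions sorted by FACS into six bins by GFP to DsRed ratio, PSI derived from sequencing read proportions per bin multiplied by bin number.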

Point of comparison: TLSEAYIQIWKRRDNDETHQQGA, protein stability index 2.75. Against it:
- TLSEAYIQGWKRRDNDETNQQGA — lower, 2.54
- TLSEAYIQDWKRRDNDETNQQGA — higher, 2.84
- TLSEAYIQWWKRRDNDETNQQGA — lower, 1.73
- TLSEAYIQLWKRRDNDETNQQGA — lower, 2.21
- TLSEAYIQKWKRRDNDETNQQGA — higher, 3.13
- TLSEAYIQPWKRRDNDETNQQGA — higher, 3.42
- TLSEAYIQFWKRRDNDETNQQGA — lower, 2.03
- TLSEAYIQNWKRRDNDETNQQGA — higher, 3.46
- TLSEAYIQRWKRRDNDETNQQGA — higher, 3.3
- TLDEAYIQIWKRRDNDETNQQGA — higher, 3.55
- TLGEAYIQIWKRRDNDETNQQGA — lower, 2.32
- TLNEAYIQIWKRRDNDETNQQGA — lower, 2.2
- TLEEAYIQIWKRRDNDETNQQGA — higher, 2.95
- TLPEAYIQIWKRRDNDETNQQGA — higher, 3.01
- TLMEAYIQIWKRRDNDETNQQGA — lower, 2.01
- TLVEAYIQIWKRRDNDETNQQGA — lower, 1.11
- TLLEAYIQIWKRRDNDETNQQGA — higher, 3.01
- TLIEAYIQIWKRRDNDETNQQGA — lower, 2.3
- TLAEAYIQIWKRRDNDETNQQGA — higher, 3.23
- TLSEAYIQIWARRDNDETNQQGA — lower, 1.74
- TLSEAYIQIWQRRDNDETNQQGA — lower, 1.78
- TLSEAYIQIWERRDNDETNQQGA — lower, 1.92
- TLSEAYIQIWFRRDNDETNQQGA — lower, 2.04
- TLSEAYIQIWLRRDNDETNQQGA — lower, 2.32
- TLSEAYIQIWGRRDNDETNQQGA — lower, 2.39
- TLSEAYIQIWRRRDNDETNQQGA — lower, 1.86
- TLSEAYIQIWHRRDNDETNQQGA — lower, 1.88
- TLSEAYIQIWNRRDNDETNQQGA — lower, 2.41
- TLSEAYIQIWKRRDNDETNQQGT — higher, 3.73
- TLSEAYIQIWKRRDNDETNQQGK — higher, 4.54
- TLSEAYIQIWKRRDNDETNQQGQ — higher, 4.5
- TLSEAYIQIWKRRDNDETNQQGD — higher, 4.15
- TLSEAYIQIWKRRDNDETNQQGC — higher, 3.53
- TLSEAYIQIWKRRDNDETNQQGF — higher, 3.71
- TLSEADIQIWKRRDNDETNQQGA — higher, 3.66
- TLSEAQIQIWKRRDNDETNQQGA — higher, 3.57
- TLSEASIQIWKRRDNDETNQQGA — higher, 2.89
- TLSEACIQIWKRRDNDETNQQGA — higher, 2.98
- TLSEAIIQIWKRRDNDETNQQGA — higher, 2.88
- TLSEAAIQIWKRRDNDETNQQGA — higher, 3.45
- TLSEAMIQIWKRRDNDETNQQGA — lower, 2.26
- TLSEAVIQIWKRRDNDETNQQGA — higher, 3.28
- TLSEALIQIWKRRDNDETNQQGA — lower, 2.2
- TLSEARIQIWKRRDNDETNQQGA — higher, 3.02
- TLSEAGIQIWKRRDNDETNQQGA — higher, 3.19
- TLSEAYIQIWKRRDNDKTNQQGA — lower, 1.72
- TLSEAYIQIWKRRDNDRTNQQGA — lower, 1.63
- TLSEAYIQIWKRRDNDGTNQQGA — lower, 2.66
- TLSEAYIQIWKRRDNDQTNQQGA — lower, 1.55
- TLSEAYIQIWKRRDNDLTNQQGA — lower, 1.71
- TLSEAYIQIWKRRDNDHTNQQGA — lower, 1.6
- TLSEAYIQIWKRRDNDCTNQQGA — lower, 2.33
- TLSEAYIQIWKRRDNDNTNQQGA — lower, 1.77
- TLSEAYIQIWKRRDNDITNQQGA — lower, 1.93
- TLSEAYIQIWKRRDNDYTNQQGA — lower, 1.87
- TLSEAYIQIWKRRDNDETKQQGA — higher, 2.77
- TLSEAYIQIWKRRDNDETYQQGA — higher, 3.5
- TLSEAYIQIWKRRDNDETCQQGA — lower, 2.1
- TLSEAYIQIWKRRDNDETPQQGA — lower, 1.45
- TLSEAYIQIWKRRDNDETLQQGA — lower, 1.79
- TLSEAYIQIWKRRDNDETQQQGA — higher, 2.85
- TLSEAYIQIWKRRDNDETRQQGA — lower, 2.37
- TLSEAYIQIWKRFDNDETNQQGA — lower, 1.48
- TLSEAYIQIWKRDDNDETNQQGA — higher, 3.22
- TLSEAYIQIWKREDNDETNQQGA — lower, 2.63
- TLSEAYIQIWKRGDNDETNQQGA — lower, 1.93
- TLSEAYIQIWKRTDNDETNQQGA — lower, 2.36
- TLSEAYIQIWKRSDNDETNQQGA — lower, 2.07
- TLSEAYIQIWKRNDNDETNQQGA — lower, 2.37
- TLSEAYIQIWKRPDNDETNQQGA — lower, 2.46
- TLSEAYIQIWKRMDNDETNQQGA — lower, 2.14
- TLSEAYIQIWKRRFNDETNQQGA — lower, 2
- TLSEAYIQIWKRRGNDETNQQGA — lower, 2.06
- TLSEAYIQIWKRRRNDETNQQGA — lower, 2.74
- TLSEAYIQIWKRRVNDETNQQGA — higher, 2.9
- TLSEAYIQIWKRRCNDETNQQGA — lower, 2.08
- TLSEAYIQIWKRRTNDETNQQGA — lower, 2.39
- TLSEAYIQIWKRRSNDETNQQGA — lower, 1.94
- TLSEAYIQIWKRRQNDETNQQGA — lower, 2.12
- TLSEAYIQIWKRRNNDETNQQGA — lower, 1.71
- TLSEAYIQIWKRRDNDETNQQHA — higher, 3.63
- TLSEAYIQIWKRRDNDETNQQPA — higher, 3.05
- TLSEAYIQIWKRRDNDETNQQRA — higher, 2.83
- TLSEAYIQIWKRRDNDETNQQQA — higher, 4.13
- TLSEAYIQIWKRRDNDETNQQVA — higher, 3.41
- TLSEAYIQIWKRRDNDETNQQFA — higher, 3
- TLSEAYIQIWKRRDNDETNQQSA — higher, 3.82
- TLSEYYIQIWKRRDNDETNQQGA — lower, 2.57
- TLSEMYIQIWKRRDNDETNQQGA — lower, 2.19
- TLSERYIQIWKRRDNDETNQQGA — higher, 3.47
- TLSEGYIQIWKRRDNDETNQQGA — higher, 2.86
- TLSEFYIQIWKRRDNDETNQQGA — lower, 1.78
- TNSEAYIQIWKRRDNDETNQQGA — higher, 3.33
- TMSEAYIQIWKRRDNDETNQQGA — higher, 2.98
- TYSEAYIQIWKRRDNDETNQQGA — lower, 2.12
- TQSEAYIQIWKRRDNDETNQQGA — higher, 3.35
- TTSEAYIQIWKRRDNDETNQQGA — lower, 2.72
- TVSEAYIQIWKRRDNDETNQQGA — lower, 2.73
- TDSEAYIQIWKRRDNDETNQQGA — higher, 3.46
- TISEAYIQIWKRRDNDETNQQGA — higher, 2.77
- TKSEAYIQIWKRRDNDETNQQGA — lower, 2.74
- TLSEAYIQIWKRRDNDETNQGGA — lower, 2.52
- TLSEAYIQIWKRRDNDETNQIGA — lower, 2.66
- TLSEAYIQIWKRRDNDETNQMGA — lower, 1.8
- TLSEAYIQIWKRRDNDETNQPGA — higher, 4.25
- TLSEAYIQIWKRRDNDETNQCGA — lower, 1.76
- TLSEAYIQIWKRRDNDETNQEGA — higher, 2.87
- TLSEAYIQIWKRRDNDETNQVGA — lower, 1.96
- TLSEAYIQIWKRRDNDETNQDGA — lower, 2.74
- TLSEAYIQIWKRRDNDETNQLGA — lower, 2.09
- TLSEAYIQIWKRRDNDETNQFGA — lower, 1.79
- TLSEAYIQIWKRRDNDETNQYGA — lower, 2.43
- TLSEAYIQIWKRRDNEETNQQGA — lower, 2.14
- TLSEAYIQIWKRRDNSETNQQGA — lower, 2.22
- TLSEAYIQIWKRRDNPETNQQGA — lower, 1.29
- TLSEAYIQIWKRRDNRETNQQGA — lower, 1.66
- TLSEAYIQIWKRRDNGETNQQGA — lower, 1.65
- TLSEAYIQIWKRRDNIETNQQGA — lower, 1.95
- TLSEAYIQIWKRRDNQETNQQGA — lower, 2.22
- TLSEAYIQIWKRRDNHETNQQGA — lower, 1.63
- TLSEAYIRIWKRRDNDETNQQGA — higher, 3.93
- TLSEAYIDIWKRRDNDETNQQGA — lower, 2.48
- TLSEAYIVIWKRRDNDETNQQGA — lower, 1.78
- TLSEAYIKIWKRRDNDETNQQGA — higher, 3.05
- TLSEAYICIWKRRDNDETNQQGA — lower, 1.95
- TLSEAYIFIWKRRDNDETNQQGA — lower, 2
- TLSEAYIYIWKRRDNDETNQQGA — lower, 2.07
- TLSEAYIIIWKRRDNDETNQQGA — lower, 1.5
- TLSEAYITIWKRRDNDETNQQGA — lower, 1.98
- TLSEAYIMIWKRRDNDETNQQGA — lower, 1.59
- TLSEAYIPIWKRRDNDETNQQGA — lower, 1.9
- TLSEAYISIWKRRDNDETNQQGA — lower, 2.48
- TLSEAYIQIWKRRDGDETNQQGA — lower, 2.68
- TLSEAYIQIWKRRDYDETNQQGA — lower, 1.28
- TLSEAYIQIWKRRDTDETNQQGA — lower, 1.88
- TLSEAYIQIWKRRDFDETNQQGA — lower, 2.24
- TLSEAYIQIWKRRDDDETNQQGA — higher, 3.03
- TLSEAYIQIWKRRDWDETNQQGA — lower, 2.36
- TLSEAYIQIWKRRDPDETNQQGA — lower, 1.77
- TLSEAYIQIWKRRDCDETNQQGA — lower, 2.31
- TLSEAYIQIWKRRDQDETNQQGA — lower, 2.01
- TLSEAYIQIWKRRDIDETNQQGA — lower, 2.53
- TLSEAYIQIWKNRDNDETNQQGA — higher, 3.13
- TLSEAYIQIWKMRDNDETNQQGA — lower, 2.1
- TLSEAYIQIWKLRDNDETNQQGA — lower, 1.98
- TLSEAYIQIWKQRDNDETNQQGA — higher, 2.87
- TLSEAYIQIWKRRDNDETNSQGA — higher, 4.26
- TLSEAYIQIWKRRDNDETNMQGA — higher, 3.46
- TLSEAYIQIWKRRDNDETNLQGA — lower, 2.02
- TLSEAYIQIWKRRDNDETNDQGA — lower, 2.37
- TLSEAYIQIWKRRDNDETNCQGA — lower, 2.38
- TLSGAYIQIWKRRDNDETNQQGA — lower, 2.23
- TLSRAYIQIWKRRDNDETNQQGA — higher, 2.97
- TLSCAYIQIWKRRDNDETNQQGA — lower, 1.73
- TLSQAYIQIWKRRDNDETNQQGA — lower, 2.32
- TLSVAYIQIWKRRDNDETNQQGA — lower, 2.12
- TLSDAYIQIWKRRDNDETNQQGA — lower, 2.56
- TLSSAYIQIWKRRDNDETNQQGA — lower, 1.76
- TLSPAYIQIWKRRDNDETNQQGA — higher, 3.17
- TLSEAYIQIFKRRDNDETNQQGA — higher, 2.78
- TLSEAYIQIDKRRDNDETNQQGA — higher, 3.97
- TLSEAYIQIYKRRDNDETNQQGA — lower, 2.53
- TLSEAYIQIGKRRDNDETNQQGA — higher, 3.27
- TLSEAYIQIKKRRDNDETNQQGA — higher, 3.23
- TLSEAYIQIPKRRDNDETNQQGA — higher, 3.41
- TLSEAYIQIEKRRDNDETNQQGA — higher, 3.69
- TLSEAYIQISKRRDNDETNQQGA — higher, 3.19
- TLSEAYIQICKRRDNDETNQQGA — lower, 2.45
- TLSEAYIQIRKRRDNDETNQQGA — higher, 3.49
- TLSEAYIQIVKRRDNDETNQQGA — higher, 3.58
- TLSEAYIQIMKRRDNDETNQQGA — lower, 2.5
- TLSEAYIQIIKRRDNDETNQQGA — lower, 2.72
- TLSEAYIQIQKRRDNDETNQQGA — higher, 3.46
- TLSEAYFQIWKRRDNDETNQQGA — lower, 2.27
- TLSEAYNQIWKRRDNDETNQQGA — higher, 2.82
- TLSEAYRQIWKRRDNDETNQQGA — lower, 2.68
- TLSEAYGQIWKRRDNDETNQQGA — lower, 2.56
- TLSEAYIQIWKRRDNDEHNQQGA — higher, 3.19
- TLSEAYIQIWKRRDNDEKNQQGA — higher, 3.63
- TLSEAYIQIWKRRDNDEYNQQGA — lower, 2.51
- TLSEAYIQIWKRRDNDERNQQGA — lower, 2.54
- TLSEAYIQIWKRRDNDEINQQGA — higher, 3.17
- TLSEAYIQIWKRRDNDEMNQQGA — lower, 1.43
- TLSEAYIQIWKRRDNDELNQQGA — lower, 2.06
- TLSEAYIQIWKRRDNDENNQQGA — lower, 2.41
- TLSEAYIQIWKRRDNDEANQQGA — higher, 3.05
- TLSEAYIQIWKRRDNDEFNQQGA — lower, 1.73
- VLSEAYIQIWKRRDNDETNQQGA — lower, 2.07
- RLSEAYIQIWKRRDNDETNQQGA — higher, 2.79
- ILSEAYIQIWKRRDNDETNQQGA — lower, 2.31
- PLSEAYIQIWKRRDNDETNQQGA — lower, 2.54
- YLSEAYIQIWKRRDNDETNQQGA — lower, 1.78
- ELSEAYIQIWKRRDNDETNQQGA — lower, 2.59

From the supplement of paper PMC10567573
